Tested on: Escherichia coli TOP10
Assay: shrunken log2 fold change of peptide-encoding DNA abundance (4.5 h post-induction vs induction); higher = less antimicrobial activity (less host growth inhibition)
Conditions: time post-induction: 4.5 h; library: site-saturation at positions 5, 18, 19, 20
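Note: peptides expressed intracellularly from a pBAD plasmid library in pooled LB shake-flask culture, induced with 0.3% L-arabinose, DNA abundance read by NGS, three biological replicates, DESeq2 with apeglm shrinkage.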

Row | Sequence | shrunken log2 fold change
1 | RRIRLRPPRLPRPRPRPWSIPRP | -0.0808
2 | RRIRVRPPRLPRPRPRPRLAPRP | 0.684
3 | RRIRSRPPRLPRPRPRPILIPRP | -0.384
4 | RRIRIRPPRLPRPRPRPETKPRP | 0.0233
5 | RRIRRRPPRLPRPRPRPPCSPRP | 0.112
6 | RRIRSRPPRLPRPRPRPMLIPRP | -0.131
7 | RRIRYRPPRLPRPRPRPLLAPRP | -0.197
8 | RRIRQRPPRLPRPRPRPGCGPRP | 0.442
9 | RRIRDRPPRLPRPRPRPVEEPRP | 0.525
10 | RRIRHRPPRLPRPRPRPSHYPRP | 0.288
11 | RRIRRRPPRLPRPRPRPYPPPRP | -0.176
12 | RRIRYRPPRLPRPRPRPCMMPRP | 0.00911
13 | RRIRDRPPRLPRPRPRPHDYPRP | -0.0787
14 | RRIRFRPPRLPRPRPRPNSKPRP | -0.464
15 | RRIRLRPPRLPRPRPRPGPEPRP | 0.685
16 | RRIRDRPPRLPRPRPRPFTNPRP | -0.0104
17 | RRIRNRPPRLPRPRPRPSVEPRP | -0.254
18 | RRIRYRPPRLPRPRPRPAHNPRP | -0.409
19 | RRIRIRPPRLPRPRPRPCNKPRP | -0.47
20 | RRIRNRPPRLPRPRPRPIYRPRP | -0.356
21 | RRIRARPPRLPRPRPRPMHCPRP | 0.0899
22 | RRIRKRPPRLPRPRPRPYEQPRP | -0.0536
23 | RRIRTRPPRLPRPRPRPLIEPRP | -0.325
24 | RRIRRRPPRLPRPRPRPRQIPRP | 0.452
25 | RRIRPRPPRLPRPRPRPRDCPRP | 0.277

Row | Sequence | shrunken log2 fold change
26 | RRIRCRPPRLPRPRPRPWTRPRP | 0.0156
27 | RRIRTRPPRLPRPRPRPMLMPRP | -0.248
28 | RRIRDRPPRLPRPRPRPFIKPRP | -0.206
29 | RRIRARPPRLPRPRPRPARAPRP | 0.834
30 | RRIRNRPPRLPRPRPRPLAAPRP | 0.568
31 | RRIRDRPPRLPRPRPRPGDEPRP | 0.0587
32 | RRIRPRPPRLPRPRPRPNMCPRP | -0.0958
33 | RRIRKRPPRLPRPRPRPVDIPRP | -0.0337
34 | RRIRMRPPRLPRPRPRPGYQPRP | -0.0727
35 | RRIRNRPPRLPRPRPRPQENPRP | -0.151
36 | RRIRTRPPRLPRPRPRPTHRPRP | -0.185
37 | RRIRERPPRLPRPRPRPKETPRP | 0.0319
38 | RRIRHRPPRLPRPRPRPPSEPRP | -0.0921
39 | RRIRKRPPRLPRPRPRPAMAPRP | 0.664
40 | RRIRQRPPRLPRPRPRPGDQPRP | -0.0566
41 | RRIRQRPPRLPRPRPRPKKHPRP | -0.236
42 | RRIRARPPRLPRPRPRPFNLPRP | -0.173
43 | RRIRFRPPRLPRPRPRPFDWPRP | 0.109
44 | RRIRMRPPRLPRPRPRPKVCPRP | 0.0971
45 | RRIRTRPPRLPRPRPRPSITPRP | -0.484
46 | RRIRHRPPRLPRPRPRPKGKPRP | -0.0894
47 | RRIRLRPPRLPRPRPRPTYVPRP | -0.591
48 | RRIRDRPPRLPRPRPRPRPWPRP | 0.25
49 | RRIRWRPPRLPRPRPRPCLFPRP | -0.00127
50 | RRIRDRPPRLPRPRPRPRPAPRP | 0.966

Row | Sequence | shrunken log2 fold change
51 | RRIRDRPPRLPRPRPRPSIDPRP | -0.145
52 | RRIRDRPPRLPRPRPRPIRNPRP | 0.011
53 | RRIRVRPPRLPRPRPRPCPSPRP | -0.0233
54 | RRIRMRPPRLPRPRPRPESGPRP | 0.908
55 | RRIRVRPPRLPRPRPRPTWFPRP | 0.177
56 | RRIRMRPPRLPRPRPRPCSTPRP | 0.477
57 | RRIRNRPPRLPRPRPRPTWWPRP | 0.326
58 | RRIRIRPPRLPRPRPRPLIAPRP | -0.24
59 | RRIRLRPPRLPRPRPRPQNFPRP | 0.0254
60 | RRIRDRPPRLPRPRPRPKAQPRP | -0.1
61 | RRIRPRPPRLPRPRPRPDNPPRP | -0.00669
62 | RRIRHRPPRLPRPRPRPSYSPRP | -0.314
63 | RRIRVRPPRLPRPRPRPMFEPRP | 0.0774
64 | RRIRNRPPRLPRPRPRPESPPRP | 0.0142
65 | RRIRIRPPRLPRPRPRPFFFPRP | -0.0692
66 | RRIRRRPPRLPRPRPRPDFFPRP | -0.00974
67 | RRIRFRPPRLPRPRPRPEKGPRP | 0.0184
68 | RRIRQRPPRLPRPRPRPQPPPRP | 0.194
69 | RRIRARPPRLPRPRPRPSHGPRP | 0.115
70 | RRIRYRPPRLPRPRPRPRLNPRP | -0.313
71 | RRIRRRPPRLPRPRPRPHHKPRP | -0.0355
72 | RRIRLRPPRLPRPRPRPVYIPRP | -0.258
73 | RRIRIRPPRLPRPRPRPWNQPRP | 0.00812
74 | RRIRLRPPRLPRPRPRPMYWPRP | -0.115
75 | RRIRFRPPRLPRPRPRPEADPRP | 0.24

Row | Sequence | shrunken log2 fold change
76 | RRIRFRPPRLPRPRPRPEGYPRP | 0.0525
77 | RRIRGRPPRLPRPRPRPGIIPRP | 0.0469
78 | RRIRARPPRLPRPRPRPCLGPRP | 0.0637
79 | RRIRARPPRLPRPRPRPCYLPRP | -0.262
80 | RRIRIRPPRLPRPRPRPHAGPRP | -0.242
81 | RRIRPRPPRLPRPRPRPAAGPRP | 0.287
82 | RRIRKRPPRLPRPRPRPYPAPRP | 0.289
83 | RRIRSRPPRLPRPRPRPGMYPRP | 0.0605
84 | RRIRMRPPRLPRPRPRPNIHPRP | -0.144
85 | RRIRCRPPRLPRPRPRPDYMPRP | -0.133
86 | RRIRPRPPRLPRPRPRPAYYPRP | -0.0697
87 | RRIRMRPPRLPRPRPRPFWVPRP | -0.0112
88 | RRIRGRPPRLPRPRPRPADIPRP | -0.229
89 | RRIRIRPPRLPRPRPRPRWKPRP | 0.0818
90 | RRIRERPPRLPRPRPRPTIMPRP | -0.959
91 | RRIRNRPPRLPRPRPRPGDLPRP | 0.107
92 | RRIRRRPPRLPRPRPRPRASPRP | 0.527
93 | RRIRNRPPRLPRPRPRPCRHPRP | -0.149
94 | RRIRARPPRLPRPRPRPYSVPRP | -0.248
95 | RRIRERPPRLPRPRPRPRWFPRP | 0.0416
96 | RRIRTRPPRLPRPRPRPCFFPRP | -0.202
97 | RRIRLRPPRLPRPRPRPKLNPRP | -0.182
98 | RRIRGRPPRLPRPRPRPEDTPRP | 1.58
99 | RRIRKRPPRLPRPRPRPQMCPRP | -0.0359
100 | RRIRRRPPRLPRPRPRPPIMPRP | -0.0528

Row | Sequence | shrunken log2 fold change
101 | RRIRTRPPRLPRPRPRPAIDPRP | -0.206
102 | RRIRRRPPRLPRPRPRPIWFPRP | 0.0342
103 | RRIRFRPPRLPRPRPRPHHEPRP | -0.515
104 | RRIRHRPPRLPRPRPRPGDPPRP | 0.219
105 | RRIRKRPPRLPRPRPRPMNKPRP | 0.0136
106 | RRIRYRPPRLPRPRPRPVLHPRP | -0.5
107 | RRIRHRPPRLPRPRPRPVRTPRP | 0.314
108 | RRIRSRPPRLPRPRPRPLRWPRP | 0.776
109 | RRIRLRPPRLPRPRPRPLVHPRP | -0.0413
110 | RRIRIRPPRLPRPRPRPGNWPRP | -0.35
111 | RRIRPRPPRLPRPRPRPPALPRP | 0.388
112 | RRIRDRPPRLPRPRPRPGTDPRP | 0.341
113 | RRIRARPPRLPRPRPRPFNGPRP | 0.0657
114 | RRIRYRPPRLPRPRPRPQATPRP | -0.108
115 | RRIRSRPPRLPRPRPRPPIDPRP | -0.0487
116 | RRIRGRPPRLPRPRPRPKGCPRP | 2.83
117 | RRIRNRPPRLPRPRPRPTVNPRP | -0.382
118 | RRIRVRPPRLPRPRPRPYIFPRP | -0.864
119 | RRIRVRPPRLPRPRPRPYYLPRP | -0.286
120 | RRIRPRPPRLPRPRPRPSSNPRP | -0.388
121 | RRIRRRPPRLPRPRPRPEKDPRP | 0.0399
122 | RRIRCRPPRLPRPRPRPGHGPRP | -0.0435
123 | RRIRHRPPRLPRPRPRPAHQPRP | 0.0515
124 | RRIRTRPPRLPRPRPRPCIPPRP | -1.3
125 | RRIRGRPPRLPRPRPRPNCGPRP | 0.0147

— the supplement of paper PMC9112550, “Optimization of the antimicrobial peptide Bac7 by deep mutational scanning” (BMC Biology, 2022)
